Measured values published in patent US7803382B2, “Method for inducing immune response to NY-CO-58” (Ludwig Institute for Cancer Research Ltd., priority 2001, dated 2010).

B1: CO-41 (MBD2): serologically defined colon cancer antigen, protein SEQ ID NO:23 (protein, listed as Homo sapiens)
chain: PSKLQKNKQRLRNDPLNQNKGKPDLNTTLPIRQTASIFKQPVTKVTNHPSNKVKSDPQRMNEQPRQLFWEKRLQGLSASDVTEQIIKTMELPKGLQGVGPGSNDETLLSAVASALHTSSAPITGQVSAAVEKNPAVWLNTSQPLCKAFIVTDEDIRKQEERVQQVRKKLEEALMADILSRAADTEEMDIEMDSGDEA
B2: SSX-2: serologically defined colon cancer antigen, protein SEQ ID NO:28 (protein, listed as Homo sapiens)
chain: MNGDDAFARRPTVGAQIPEKIQKAFDDIAKYFSKEEWEKMKASEKIFYVYMKRKYEAMTKLGFKATLPPFMCNKRAEDFQGNDLDNDPNRGNQVERPQMTFGRLQGISPKIMPKKPAEEGNDSEEVPEASGPQNDGKELCPPGKPTTSEKIHERSGPKRGEHAWTHRLRERKQLVIYEEISDPEEDDE
B3: MAGE-3: serologically defined colon cancer antigen, protein SEQ ID NO:29 (protein, listed as Homo sapiens)
chain: MPLEQRSQHCKPEEGLEARGEALGLVGAQAPATEEQEAASSSSTLVEVTLGEVPAAESPDPPQSPQGASSLPTTMNYPLWSQSYEDSSNQEEEGPSTFPDLESEFQAALSRKVAELVHFLLLKYRAREPVTKAEMLGSVVGNWQYFFPVIFSKASSSLQLVFGIELMEVDPIGHLYIFATCLGLSYDGLLGDNQIMPKAGLLIIVLAIIAREGDCAPEEKIWEELSVLEVFEGREDSILGDPKKLLTQHFVQENYLEYRQVPGSDPACYEFLWGPRALVETSYVKVLHHMVKISGGPHISYPPLHEWVLREGEE
B4: CO-45 (Tudor like): serologically defined colon cancer antigen, protein SEQ ID NO:21 (protein, listed as Homo sapiens)
chain: RVKATLSERKIGDSCDKDLPLKFCEFPQKTIMPGFKTTVYVSHINDLSDFYVQLIEDEAEISHLSERLNSVKTRPEYYVGPPLQRGDMICAVFPEDNLWYRAVIKEQQPNDLLSVQFIDYGNVSVVHTNKIGRLDLVNAILPGLCIHCSLQGFEVPDNKNSKKMMHYFSQRTSEAAIRCEFVKFQDRWEVILADEHGIIADDMISRYALSEKSQVELSTQVIKSASSKSVNKSDIDTSVFLNWYNPEKKMIRAYATVIDGPEYFWCQFADTEKLQCLEVEVQTAGEQVADRRNCIPCPYIGDPCIVRYREDGHYYRALITNICEDYLVSVRLVDFGNIEDCVDPKALWAIPSELLSVPMQAFPCCLSGFNISEGLCSQEGNDYFYEIITEDVLEITILEIRRDVCDIPLAIVDLKSKGKSINEKMEKYSKTGIKSALPYENIDSEIKQTLGSYNLDVGLKKLSNKAVQNKIYMEQQTDELAEITEKDVNIIGTKPSNFRDPKTDNICEGFENPCKDKIDTEELEGELECHLVDKAEFDDKYLITGFNTLLPHANETKEILELNSLEVPLSPDDESKEFLELESIELQNSLVVDEEKGELSPVPPNVPLSQECVTKGAMELFTLQLPLSCEAEKQPELELPTAQLPLDDKMDPLSLGVSQKAQESMCTEDMRKSSCVESFDDQRRMSLHLHGADCDPKTQNEMNICEEEFVEYKNRDAISALMPFSLRKKAVMEASTIMVYQIIFQNYRTPTL
B5: CO-9 (HDAC 5): serologically defined colon cancer antigen, protein SEQ ID NO:18 (protein, listed as Homo sapiens)
chain: EFLLSKSKEPTPGGLNHSLPQHPKCWGAHHASLDQSSPPQSGPPGTPPSYKLPLPGPYDSRDDFPLRKTASEPNLKVRSRLKQKVAERRSSPLLRRKDGTVISTFKKRAVEITGAGPGASSVCNSAPGSGPSSPNSSHSTIAENGFTGSVPNIPTEMLPQHRALPLDSSPNQFSLYTSPSLPNISLGLQATVTVTNSHLTASPKLSTQQEAERQALQSLRQGGTLTGKFMSTSSIPGCLLGVALEGDGSPHGHASLLQHVLLLEQARQQSTLIAVPLHGQSPLVTGERVATSMRTVGKLPRHRPLSRTQSSPLPQSPQALQQLVMQQQHQQFLEKQKQQQLQLGKILTKTGELPRQPTTHPEETEEELTEQQEVLLGEGALTMPREGSTESESTQEDLEEEDEEEDGEEEEDCIQVKDEEGESGAEEGPDLEEPGAGYKKLFSDAQPLQPLQVYQAPLSLATVPHQALGRTQSSPAAPGGMKNPPDQPVKHLFTTSVVYDTFMLKHQCMCGNTHVHPEHAGRIQSIWSRLQETGLLSKCERIRGRKATLDEIQTVHSEYHTLLYGTSPLNRQKLDSKKLLGPISQKMYAVLPCGGIGVDSDTVWNEMHSSSAVRMAVGCLLELAFKVAAGELKNGFAIIRPPGHHAEESTAMGFCFFNSVAITAKLLQQKLNVGKVLIVDWDIHHGNGTQQAFYNDPSVLYISLHRYDNGNFFPGSGAPEEVGGGPGVGYNVNVAWTGGVDPPIGDVEYLTAFRTVVMPIAHEFSPDVVLVSAGFDAVEGHLSPLGGYSVTARCFGHLTRQLMTLAGGRVVLALEGGHDLTAICDASEACVSALLSVKLQPLDEAVLQQKPNINAVATLEKVIEIQSKHWSCVQKFAAGLGRSLRGAQAGETEEAEM
B6: CO-42 (TRIP4): serologically defined colon cancer antigen, protein SEQ ID NO:22 (protein, listed as Homo sapiens)
chain: AEVKTPFDLAKAQENSNSVKKKTKFVNLYTRERQDRLAVLLPGRHPCDCLGQKHKLINNCLICGRIVCEQEGSGPCLFCGTLVCTHEEQDILQRDSNKSQKLLKKLMSGVENSGKVDISTKDLLPHQELRIKSGLEKAIKHKDKLLEFDRTSIRRTQVIDDESDYFASDSNQWLSKLERETLQKREEELRELRHASRLSKKVTIDFAGRKILEEENSLAEYHSRLDETIQAIANGTLNQPLTKLDRSSEEPLGVLVNPNMYQSPPQWLTTQVQPHRRRLSVLQDLD
B7: CO-26 (MNK 1): serologically defined colon cancer antigen, protein SEQ ID NO:27 (protein, listed as Homo sapiens)
chain: HIQKQKHFNEREASRVVRDVAAALDFLHTKGIAHRDLKPENILCESPEKVSPVKICDFDLGSGMKLNNSCTPITTPELTTPCGSAEYMAPEVVEVFTDQATFYDKRCDLWSLGVVLYIMLSGYPPFVGHCGADCGWDRGEVCRVCQNKLFESIQEGKYEFPDKDWAHISSEAKDLISKLLVRDAKQKLSAAQVLQHPWVQGQAPEKGLPTPQVLQRNSSTMDLTLFAAEAIALNRQLSQHEENELAEEPEALADGLCSMKLSPPCKSRLARRRALAQAGRGENRSPPTAL
B8: REN-32 (Lamin C): serologically defined colon cancer antigen, protein SEQ ID NO:25 (protein, listed as Homo sapiens)
chain: METPSQRRATRSGAQASSTPLSPTRITRLQEKEDLQELNDRLAVYIDRVRSLETENAGLRLRITESEEVVSREVSGIKAAYEAELGDARKTLDSVAKERARLQLELSKVREEFKELKARNTKKEGDLIAAQARLKDLEALLNSKEAALSTALSEKRTLEGELHDLRGQVAKLEAALGEAKKQLQDEMLRRVDAENRLQTMKEELDFQKNIYSEELRETKRRHETRLVEIDNGKQREFESRLADALQELRAQHEDQVEQYKKELEKTYSAKLDNARQSAERNSNLVGAAHEELQQSRIRIDSLSAQLSQLQKQLAAKEAKLRDLEDSLARERDTSRRLLAEKEREMAEMRARMQQQLDEYQELLDIKLALDMEIHAYRKLLEGEEERLRLSPSPTSQRSRGRASSHSSQTQGGGSVTKKRKLESTESRSSFSQHARTSGRVAVEEVDEEGKFVRLRNKSNEDQSMGNWQIKRQNGDDPLLTYRFPPKFTLKAGQVVTIWAAGAGATHSPPTDLVWKAQNTWGCGNSLRTALINSTGEEVAMRKLVR
B9: CO-61 (HIP1R): serologically defined colon cancer antigen, protein SEQ ID NO:19 (protein, listed as Homo sapiens)
chain: MFDYMDCELKLSESVFRQLNTAIAVSQMSSGQCRLAPLIQVIQDCSHLYHYTVKLLFKLHSCLPADTLQGHRDRFHEQFHSLRNFFRRASDMLYFKRLIQIPRLPEGPPNFLRASALAEHIKPVVVIPEEAPEDEEPENLIEISTGPPAGEPVVVADLFDQTFGPPNGSVKDDRDLQIESLKREVEMLRSELEKIKLEAQRYIAQLKSQVNALEGELEEQRKQKQKALVDNEQLRHELAQLRAAQLEGERSQGLREEAERKASATEARYNKLKEKHSELVHVHAELLRKNADTAKQLTVTQQSQEEVARVKEQLAFQVEQVKRESELKLEEKSDQLEKLKRELEAKAGELARAQEALSHTEQSKSELSSRLDTLSAEKDALSGAVRQREADLLAAQSLVRETEAALSREQQRSSQEQGELQGRLAERESQEQGLRQRLLDEQFAVLRGAAAEAAGILQDAVSKLDDPLHLRCTSSPDYLVSRAQEALDAVSTLEEGHAQYLTSLADASALVAALTRFSHLAADTIINGGATSHLAPTDPADRLIDTCRECGARALELMGQLQDQQALRHMQASLVRTPLQGILQLGQELKPKSLDVRQEELGAVVDKEMAATSAAIEDAVRRIEDMMNQARHASSGVKLEVNERILNSCTDLMKAIRLLVTTSTSLQKEIVESGRGAATQQEFYAKNSRWTEGLISASKAVGWGATQLVEAADKVVLHTGKYEELIVCSHEIAASTAQLVAASKVKANKHSPHLSRLQECSRTVNERAANVVASTKSGQEQIEDRDTMDFSGLSLIKLKKQEMETQVRVLELEKTLEAERMRLGELRKQHYVLAGASGSPGEEVAIRPSTAPRSVTTKKPPLAQKPSVAPRQDHQLDKKDGIYPAQLVNY
B10: CO-94 (seb4D): serologically defined colon cancer antigen, protein SEQ ID NO:17 (protein, listed as Homo sapiens)
chain: RPSLPRALPAAPHERSPARPGSVGGGAPPMLLQPAPCAPSAGFPRPLAAPGAMHLFAEGHHVHQDLRGRPAVPHYRRLAQEVLXGLRRHLRRPWSSPTAXRASPAATAS
modifications: X: residue not identified in the source

Tested on: sera from colon cancer patients
Assay: Spot assay: reactivity of serologically defined colon cancer antigens with colon cancer patient sera
Format: binding, human
Conditions: reactive sera/sera tested; includes autologous where applicable; sera 1:200
Description: Serum samples from patients with colon cancer were screened using a modification of the plaque assay, termed a spot assay. In this method, 80×120 mm nitrocellulose membranes were precoated with a film of NZY/0.7% Agarose/2.5 mM IPTG and placed on a reservoir layer of NZY/0.7% Agarose in a 86×128 mm Omni Tray (Nalge Nunc International Corp., Naperville, Ill.). Approximately 1.0×10^5 pfU of monoclonal phage encoding individual serologically defined colon cancer antigens, in a volume of 20 μl, were mixed with 20 μl of exponentially growing E. coli XL-1 Blue MRF and spotted (0.7-μl aliquots) on the precoated nitrocellulose membranes. Membranes were incubated for 15 hours at 37° C. A total of 75 different serologically defined colon cancer antigens were spotted in duplicate per nitrocellulose membrane. The agarose film was then removed from the membrane and the filters were processed for reactivity with individual serum samples (1:200 dilution), as described in Scanlan, et al., Int. J. Cancer 76:652-658 (1998) and Scanlan, et al., Int. J. Cancer 83:456-64, (1999).

Molecule	Reactivity of individual antigens
B1	3/76
B2	2/75
B3	6/75
B4	4/76
B5	3/76
B6	7/76
B7	2/76
B8	3/75
B9	5/75
B10	4/75
